Assay results: PMC7448930

Target: HCoV-19 fusion core (HR1 and HR2 linked with a peptide linker) (HCoV-19)
Test: crystal structure; HR1 and HR2 linked on one chain by a peptide linker; 1.5 Å; one HR1/HR2 complex in the asymmetric unit, trimer by symmetry operations

HCoV-19 fusion core (HR1 and HR2 linked with a peptide linker) (domain or fragment)
stoichiometry N: 3
